What was measured:
Assay in all cases: Octet (BLI), global fit, 1:1 binding model
[1] = target: cynomolgus CTLA-4 (cynomolgus) (UniProt G7PL88)
[2] = target: cynomolgus LAG-3 (cynomolgus)
[3] = target: human CTLA-4 (human) (UniProt P16410)
[4] = target: human LAG-3 (human) (UniProt P18627)
Chain of human LAG-3 (human) (P18627 23-450 limits assumed): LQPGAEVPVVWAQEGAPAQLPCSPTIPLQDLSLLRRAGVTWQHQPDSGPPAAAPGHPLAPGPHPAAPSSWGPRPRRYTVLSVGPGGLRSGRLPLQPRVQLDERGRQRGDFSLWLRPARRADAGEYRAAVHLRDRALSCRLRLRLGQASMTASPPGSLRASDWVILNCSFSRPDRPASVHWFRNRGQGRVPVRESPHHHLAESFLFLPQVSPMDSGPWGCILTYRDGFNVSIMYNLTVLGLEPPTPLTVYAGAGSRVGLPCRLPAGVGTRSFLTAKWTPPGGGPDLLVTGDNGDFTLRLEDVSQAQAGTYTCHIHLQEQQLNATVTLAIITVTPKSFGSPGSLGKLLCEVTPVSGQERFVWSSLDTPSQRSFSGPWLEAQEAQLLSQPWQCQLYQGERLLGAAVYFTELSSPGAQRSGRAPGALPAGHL

Chain of cynomolgus CTLA-4 (cynomolgus) (G7PL88 entry or part of it limits assumed, form in doubt): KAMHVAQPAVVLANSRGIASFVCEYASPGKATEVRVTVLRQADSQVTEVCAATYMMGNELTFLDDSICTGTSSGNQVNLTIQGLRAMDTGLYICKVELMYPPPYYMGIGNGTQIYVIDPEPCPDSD
Chain of human CTLA-4 (human) (P16410 36-161 limits assumed): as the sequence (G7PL88 entry or part of it limits assumed, form in doubt) above, with N14S, M106L counted along it

Kd [1]: 17.6 nM
Kd [2]: 1.3 nM
Kd [3]: 4.6 nM
Kd [4]: 1.4 nM
Substance: XmAb22841 (bispecific antibody)
